The results in this text go back to paper PMC12416549 (2024).

First the molecules themselves.
T1: TNFR1 (Homo sapiens, UniProt P19438)
T1 chain: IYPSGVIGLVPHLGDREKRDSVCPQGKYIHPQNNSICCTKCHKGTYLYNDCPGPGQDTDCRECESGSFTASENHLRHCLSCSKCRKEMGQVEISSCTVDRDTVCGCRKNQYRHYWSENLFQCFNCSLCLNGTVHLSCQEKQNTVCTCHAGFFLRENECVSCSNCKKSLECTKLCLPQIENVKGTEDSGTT

B1: D40W (designed binder)
chain: MTLQELLREEALRRAEAEAFRYALELLAEKFPEQKEYLLWLAEEIESQIRSLSGVDVEDVRKFLDKEWAWVKELLAEHPAELAEVEAARAARLAELRAEVEAKVAA
B2: E73K (designed binder)
chain: MTLQELLREEALRRAEAEAFRYALELLAEKFPEQKEYLLDLAEEIESQIRSLSGVDVEDVRKFLDKEWAWVKKLLAEHPAELAEVEAARAARLAELRAEVEAKVAA
B3: V85L (designed binder)
chain: MTLQELLREEALRRAEAEAFRYALELLAEKFPEQKEYLLDLAEEIESQIRSLSGVDVEDVRKFLDKEWAWVKELLAEHPAELAELEAARAARLAELRAEVEAKVAA
B4: E33G (designed binder)
chain: MTLQELLREEALRRAEAEAFRYALELLAEKFPGQKEYLLDLAEEIESQIRSLSGVDVEDVRKFLDKEWAWVKELLAEHPAELAEVEAARAARLAELRAEVEAKVAA
B5: K103T (designed binder)
chain: MTLQELLREEALRRAEAEAFRYALELLAEKFPEQKEYLLDLAEEIESQIRSLSGVDVEDVRKFLDKEWAWVKELLAEHPAELAEVEAARAARLAELRAEVEATVAA
B6: E46V (designed binder)
chain: MTLQELLREEALRRAEAEAFRYALELLAEKFPEQKEYLLDLAEEIVSQIRSLSGVDVEDVRKFLDKEWAWVKELLAEHPAELAEVEAARAARLAELRAEVEAKVAA
B7: D59Y (designed binder)
chain: MTLQELLREEALRRAEAEAFRYALELLAEKFPEQKEYLLDLAEEIESQIRSLSGVDVEYVRKFLDKEWAWVKELLAEHPAELAEVEAARAARLAELRAEVEAKVAA
B8: A69S (designed binder)
chain: MTLQELLREEALRRAEAEAFRYALELLAEKFPEQKEYLLDLAEEIESQIRSLSGVDVEDVRKFLDKEWSWVKELLAEHPAELAEVEAARAARLAELRAEVEAKVAA
B9: A87E (designed binder)
chain: MTLQELLREEALRRAEAEAFRYALELLAEKFPEQKEYLLDLAEEIESQIRSLSGVDVEDVRKFLDKEWAWVKELLAEHPAELAEVEEARAARLAELRAEVEAKVAA
B10: R8V (designed binder)
chain: MTLQELLVEEALRRAEAEAFRYALELLAEKFPEQKEYLLDLAEEIESQIRSLSGVDVEDVRKFLDKEWAWVKELLAEHPAELAEVEAARAARLAELRAEVEAKVAA
B11: W68E (designed binder)
chain: MTLQELLREEALRRAEAEAFRYALELLAEKFPEQKEYLLDLAEEIESQIRSLSGVDVEDVRKFLDKEEAWVKELLAEHPAELAEVEAARAARLAELRAEVEAKVAA
B12: A19D (designed binder)
chain: MTLQELLREEALRRAEAEDFRYALELLAEKFPEQKEYLLDLAEEIESQIRSLSGVDVEDVRKFLDKEWAWVKELLAEHPAELAEVEAARAARLAELRAEVEAKVAA
B13: F31I (designed binder)
chain: MTLQELLREEALRRAEAEAFRYALELLAEKIPEQKEYLLDLAEEIESQIRSLSGVDVEDVRKFLDKEWAWVKELLAEHPAELAEVEAARAARLAELRAEVEAKVAA
B14: L7Q (designed binder)
chain: MTLQELQREEALRRAEAEAFRYALELLAEKFPEQKEYLLDLAEEIESQIRSLSGVDVEDVRKFLDKEWAWVKELLAEHPAELAEVEAARAARLAELRAEVEAKVAA
B15: P32T (designed binder)
chain: MTLQELLREEALRRAEAEAFRYALELLAEKFTEQKEYLLDLAEEIESQIRSLSGVDVEDVRKFLDKEWAWVKELLAEHPAELAEVEAARAARLAELRAEVEAKVAA
B16: A98W (designed binder)
chain: MTLQELLREEALRRAEAEAFRYALELLAEKFPEQKEYLLDLAEEIESQIRSLSGVDVEDVRKFLDKEWAWVKELLAEHPAELAEVEAARAARLAELRWEVEAKVAA
B17: E77R (designed binder)
chain: MTLQELLREEALRRAEAEAFRYALELLAEKFPEQKEYLLDLAEEIESQIRSLSGVDVEDVRKFLDKEWAWVKELLARHPAELAEVEAARAARLAELRAEVEAKVAA
B18: P79R (designed binder)
chain: MTLQELLREEALRRAEAEAFRYALELLAEKFPEQKEYLLDLAEEIESQIRSLSGVDVEDVRKFLDKEWAWVKELLAEHRAELAEVEAARAARLAELRAEVEAKVAA
B19: L96C (designed binder)
chain: MTLQELLREEALRRAEAEAFRYALELLAEKFPEQKEYLLDLAEEIESQIRSLSGVDVEDVRKFLDKEWAWVKELLAEHPAELAEVEAARAARLAECRAEVEAKVAA
B20: R8A (designed binder)
chain: MTLQELLAEEALRRAEAEAFRYALELLAEKFPEQKEYLLDLAEEIESQIRSLSGVDVEDVRKFLDKEWAWVKELLAEHPAELAEVEAARAARLAELRAEVEAKVAA
B21: E99I (designed binder)
chain: MTLQELLREEALRRAEAEAFRYALELLAEKFPEQKEYLLDLAEEIESQIRSLSGVDVEDVRKFLDKEWAWVKELLAEHPAELAEVEAARAARLAELRAIVEAKVAA
B22: E29N (designed binder)
chain: MTLQELLREEALRRAEAEAFRYALELLANKFPEQKEYLLDLAEEIESQIRSLSGVDVEDVRKFLDKEWAWVKELLAEHPAELAEVEAARAARLAELRAEVEAKVAA
B23: E36I (designed binder)
chain: MTLQELLREEALRRAEAEAFRYALELLAEKFPEQKIYLLDLAEEIESQIRSLSGVDVEDVRKFLDKEWAWVKELLAEHPAELAEVEAARAARLAELRAEVEAKVAA
B24: L96F (designed binder)
chain: MTLQELLREEALRRAEAEAFRYALELLAEKFPEQKEYLLDLAEEIESQIRSLSGVDVEDVRKFLDKEWAWVKELLAEHPAELAEVEAARAARLAEFRAEVEAKVAA
B25: Q4G (designed binder)
chain: MTLGELLREEALRRAEAEAFRYALELLAEKFPEQKEYLLDLAEEIESQIRSLSGVDVEDVRKFLDKEWAWVKELLAEHPAELAEVEAARAARLAELRAEVEAKVAA
B26: R13M (designed binder)
chain: MTLQELLREEALMRAEAEAFRYALELLAEKFPEQKEYLLDLAEEIESQIRSLSGVDVEDVRKFLDKEWAWVKELLAEHPAELAEVEAARAARLAELRAEVEAKVAA
B27: V71A (designed binder)
chain: MTLQELLREEALRRAEAEAFRYALELLAEKFPEQKEYLLDLAEEIESQIRSLSGVDVEDVRKFLDKEWAWAKELLAEHPAELAEVEAARAARLAELRAEVEAKVAA
B28: E77A (designed binder)
chain: MTLQELLREEALRRAEAEAFRYALELLAEKFPEQKEYLLDLAEEIESQIRSLSGVDVEDVRKFLDKEWAWVKELLAAHPAELAEVEAARAARLAELRAEVEAKVAA
B29: E84W (designed binder)
chain: MTLQELLREEALRRAEAEAFRYALELLAEKFPEQKEYLLDLAEEIESQIRSLSGVDVEDVRKFLDKEWAWVKELLAEHPAELAWVEAARAARLAELRAEVEAKVAA
B30: K66H (designed binder)
chain: MTLQELLREEALRRAEAEAFRYALELLAEKFPEQKEYLLDLAEEIESQIRSLSGVDVEDVRKFLDHEWAWVKELLAEHPAELAEVEAARAARLAELRAEVEAKVAA
B31: V71H (designed binder)
chain: MTLQELLREEALRRAEAEAFRYALELLAEKFPEQKEYLLDLAEEIESQIRSLSGVDVEDVRKFLDKEWAWHKELLAEHPAELAEVEAARAARLAELRAEVEAKVAA
B32: V55K (designed binder)
chain: MTLQELLREEALRRAEAEAFRYALELLAEKFPEQKEYLLDLAEEIESQIRSLSGKDVEDVRKFLDKEWAWVKELLAEHPAELAEVEAARAARLAELRAEVEAKVAA
B33: S53M (designed binder)
chain: MTLQELLREEALRRAEAEAFRYALELLAEKFPEQKEYLLDLAEEIESQIRSLMGVDVEDVRKFLDKEWAWVKELLAEHPAELAEVEAARAARLAELRAEVEAKVAA
B34: L26H (designed binder)
chain: MTLQELLREEALRRAEAEAFRYALEHLAEKFPEQKEYLLDLAEEIESQIRSLSGVDVEDVRKFLDKEWAWVKELLAEHPAELAEVEAARAARLAELRAEVEAKVAA

The experiment has as its target T1, TNFR1. The experiment is described as follows: yeast display SC50.
On to B1, for which the “apparent Kd (screen)” value turned out to be 0.49 nM.
To B2 belongs 0.539 nM; to B3, 2.73 nM; to B4, 0.79 nM.
On to B5, for which the “apparent Kd (screen)” value stood at 0.956 nM.
The value for B6 was 0.49 nM; that for B7 was 3 nM.
On to B8, for which the “apparent Kd (screen)” value is 0.718 nM.
For the molecule B9, the “apparent Kd (screen)” value turned out to be 0.446 nM.
On to B10, for which the “apparent Kd (screen)” value came to 0.539 nM.
With B11, the “apparent Kd (screen)” value is 2.73 nM.
With B12, the “apparent Kd (screen)” value stood at 1.16 nM.
With B13, the “apparent Kd (screen)” value is 0.956 nM.
With B14, the “apparent Kd (screen)” value is 8.56 nM.
For the molecule B15, the “apparent Kd (screen)” value amounted to 0.539 nM.
Turning to B16, the “apparent Kd (screen)” value worked out at 0.49 nM.
The value for B17 was 0.49 nM; that for B18 was 0.869 nM.
The value for B19 was 0.49 nM.
Take B20: the “apparent Kd (screen)” value turned out to be 0.869 nM.
For B21, the “apparent Kd (screen)” value amounted to 0.49 nM.
With B22, the “apparent Kd (screen)” value was found to be 0.956 nM.
To B23 belongs 2.48 nM; to B24, 0.539 nM; to B25, 0.49 nM.
Take B26: the “apparent Kd (screen)” value was found to be 0.304 nM.
To B27 belongs 0.49 nM; to B28, 0.539 nM.
For B29, the “apparent Kd (screen)” value was 0.593 nM.
The value for B30 was 1.05 nM; that for B31 was 0.539 nM; that for B32 was 16.7 nM.
To B33 belongs 1.27 nM.
The value for B34 was 0.593 nM.
